Measured values as given in patent US20180057604A1 (Genentech, published 2018).
Where two headings read alike, the source gives them in different places.

T1: cyno TfR extracellular domain (analogous construct to human TfR ecd) (cynomolgus monkey, UniProt Q5RDH6 87-760 (Pongo abelii entry))
T1 construct: also called cynoTfR ecd
T1 chain: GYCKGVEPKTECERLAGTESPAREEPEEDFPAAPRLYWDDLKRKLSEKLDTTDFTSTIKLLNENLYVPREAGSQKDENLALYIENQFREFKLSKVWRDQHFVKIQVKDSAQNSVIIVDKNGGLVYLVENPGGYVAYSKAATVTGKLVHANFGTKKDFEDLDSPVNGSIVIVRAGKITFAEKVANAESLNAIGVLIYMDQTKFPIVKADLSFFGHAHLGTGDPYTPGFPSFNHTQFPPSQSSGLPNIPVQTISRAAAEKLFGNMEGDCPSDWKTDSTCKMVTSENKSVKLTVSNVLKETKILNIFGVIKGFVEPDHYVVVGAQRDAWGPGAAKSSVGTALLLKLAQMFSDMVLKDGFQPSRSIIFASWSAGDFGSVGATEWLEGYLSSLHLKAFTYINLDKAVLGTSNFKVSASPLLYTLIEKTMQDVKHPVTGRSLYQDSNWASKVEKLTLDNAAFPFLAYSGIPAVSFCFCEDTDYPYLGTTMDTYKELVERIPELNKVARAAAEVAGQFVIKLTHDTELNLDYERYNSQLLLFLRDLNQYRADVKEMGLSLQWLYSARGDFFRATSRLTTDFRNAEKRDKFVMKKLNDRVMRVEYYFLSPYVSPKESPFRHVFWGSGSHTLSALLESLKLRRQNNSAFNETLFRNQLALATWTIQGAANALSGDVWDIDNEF


Key:
[1] = biological target: T1, cyno TfR extracellular domain …; experiment: SPR, TfR captured by anti-His, Fab injected;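 note: single cycle kinetics with a Fab dilution series, fitted by a one-to-one Langmuir model or a steady state model, KD taken as koff over kon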
[2] = biological target: T2, human TfR extracellular domain with N-terminal His tag (human, UniProt P02786 89-760); experiment: SPR, TfR captured by anti-His, Fab injected;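 note: single cycle kinetics with a Fab dilution series, fitted by a one-to-one Langmuir model or a steady state model, KD taken as koff over kon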
T2 construct: Biotinylated in some assays; also called huTfR; HuTfR

[3] = biological target: T3, BACE1 in primary mouse cortical neurons (mouse, UniProt P56818 46-501); experiment: cell-based or functional assay
[4] = biological target: BACE1 (HTRF long substrate and FRET short substrate assays of Example 9D); experiment: cell-based or functional assay
murine BACE1 ECD [5] = biological target: T4, murine BACE1 ECD; experiment: Octet, pH 7.5;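 note: antibodies captured on anti-human capture sensor tips, dissociation monitored in PBS with BSA, Kd obtained from kinetic fit to a one-to-one binding model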
T4 construct: analyte of the Octet assay (200 nM) and enzyme of the first short substrate assay

human BACE1 ECD [6] = biological target: T5, human BACE1 ECD; experiment: Octet, pH 7.5;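 note: antibodies captured on anti-human capture sensor tips, dissociation monitored in PBS with BSA, Kd obtained from kinetic fit to a one-to-one binding model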
T5 construct: analyte of the Octet assay (200 nM) and enzyme of the first short substrate assay; also called human BACE1 extracellular domain

murine BACE1 ECD [7] = biological target: T4, murine BACE1 ECD; experiment: Octet, pH 5.0;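 note: antibodies captured on anti-human capture sensor tips, dissociation monitored in PBS with BSA buffer, kinetics fitted with a one-to-one binding model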
human BACE1 ECD [8] = biological target: T5, human BACE1 ECD; experiment: Octet, pH 5.0;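 note: antibodies captured on anti-human capture sensor tips, dissociation monitored in PBS with BSA buffer, kinetics fitted with a one-to-one binding model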
[9] = biological target: T3, BACE1 in primary mouse cortical neurons; experiment: cell-based or functional assay; remark: listed apart in the source

T5 sequence (single chain, as listed by the source limits assumed): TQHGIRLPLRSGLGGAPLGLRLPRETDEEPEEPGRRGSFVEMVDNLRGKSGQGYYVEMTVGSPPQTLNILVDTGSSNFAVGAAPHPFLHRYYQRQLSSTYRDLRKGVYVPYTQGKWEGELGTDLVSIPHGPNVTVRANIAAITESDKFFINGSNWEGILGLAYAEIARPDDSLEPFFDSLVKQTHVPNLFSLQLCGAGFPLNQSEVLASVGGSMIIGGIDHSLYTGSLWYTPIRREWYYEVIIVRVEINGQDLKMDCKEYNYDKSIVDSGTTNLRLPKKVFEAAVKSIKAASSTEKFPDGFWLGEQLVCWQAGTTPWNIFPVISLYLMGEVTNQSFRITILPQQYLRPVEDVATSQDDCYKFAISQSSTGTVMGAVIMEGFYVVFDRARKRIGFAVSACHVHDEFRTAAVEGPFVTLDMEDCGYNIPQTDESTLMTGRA
T4 sequence (single chain, as listed by the source limits assumed): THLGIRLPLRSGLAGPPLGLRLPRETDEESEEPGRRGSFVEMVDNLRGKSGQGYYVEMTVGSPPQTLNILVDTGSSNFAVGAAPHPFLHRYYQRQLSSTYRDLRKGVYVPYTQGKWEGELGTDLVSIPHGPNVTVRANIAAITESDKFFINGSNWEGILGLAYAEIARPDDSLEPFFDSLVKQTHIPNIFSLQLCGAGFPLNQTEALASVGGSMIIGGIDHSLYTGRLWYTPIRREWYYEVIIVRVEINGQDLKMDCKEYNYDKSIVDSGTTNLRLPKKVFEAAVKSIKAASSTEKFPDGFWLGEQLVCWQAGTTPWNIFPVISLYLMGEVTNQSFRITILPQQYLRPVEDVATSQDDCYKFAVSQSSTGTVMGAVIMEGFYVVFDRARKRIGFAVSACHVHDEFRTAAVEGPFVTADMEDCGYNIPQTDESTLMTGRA
T3 sequence (P56818 46-501): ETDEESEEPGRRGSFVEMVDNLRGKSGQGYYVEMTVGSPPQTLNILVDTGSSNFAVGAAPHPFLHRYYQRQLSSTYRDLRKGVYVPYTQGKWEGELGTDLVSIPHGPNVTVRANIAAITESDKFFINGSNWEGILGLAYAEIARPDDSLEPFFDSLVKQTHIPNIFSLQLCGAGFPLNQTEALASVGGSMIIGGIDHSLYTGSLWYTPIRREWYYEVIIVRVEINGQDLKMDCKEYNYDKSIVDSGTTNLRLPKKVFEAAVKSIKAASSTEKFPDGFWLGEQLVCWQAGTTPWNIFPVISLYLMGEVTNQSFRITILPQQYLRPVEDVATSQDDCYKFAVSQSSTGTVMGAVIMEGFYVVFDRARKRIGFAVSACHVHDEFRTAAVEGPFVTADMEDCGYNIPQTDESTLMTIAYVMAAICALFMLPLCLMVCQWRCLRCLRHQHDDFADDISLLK
T2 sequence (P02786 89-760 G142S): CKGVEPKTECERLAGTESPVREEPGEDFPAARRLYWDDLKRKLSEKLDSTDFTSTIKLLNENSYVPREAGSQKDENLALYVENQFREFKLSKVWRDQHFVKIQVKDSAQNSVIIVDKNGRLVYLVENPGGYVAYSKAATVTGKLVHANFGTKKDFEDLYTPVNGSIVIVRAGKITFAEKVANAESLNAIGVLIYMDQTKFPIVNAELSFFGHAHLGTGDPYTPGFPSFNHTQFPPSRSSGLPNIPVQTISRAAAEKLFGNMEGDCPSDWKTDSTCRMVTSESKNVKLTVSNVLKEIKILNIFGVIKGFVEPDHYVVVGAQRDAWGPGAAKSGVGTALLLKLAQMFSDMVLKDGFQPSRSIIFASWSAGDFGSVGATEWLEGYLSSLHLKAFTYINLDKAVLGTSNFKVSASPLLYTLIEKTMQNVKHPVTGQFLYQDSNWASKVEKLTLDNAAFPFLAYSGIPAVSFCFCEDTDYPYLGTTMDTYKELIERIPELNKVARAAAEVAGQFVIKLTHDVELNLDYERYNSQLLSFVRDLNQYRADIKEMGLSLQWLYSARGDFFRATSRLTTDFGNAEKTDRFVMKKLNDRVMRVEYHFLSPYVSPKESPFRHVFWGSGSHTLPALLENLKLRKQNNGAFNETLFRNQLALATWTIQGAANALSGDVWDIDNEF

Row | Kd [1] | koff [1] | kon [1] | Kd [2] | koff [2] | kon [2] | IC50, Abeta x-40 in mouse cortical neurons [3] | maximal % inhibition of Abeta x-40 [3] | Kd (murine BACE1 ECD [5]) | Kd (human BACE1 ECD [6]) | Kd (murine BACE1 ECD [7]) | Kd (human BACE1 ECD [8]) | Binder | also measured
1 | 73900 pM | 0.0373 s⁻¹ | 505000 M⁻¹ s⁻¹ | 10900 pM | 0.00699 s⁻¹ | 638000 M⁻¹ s⁻¹ | – | – | – | – | – | – | Hu15G11.v1.Fab (Fab, V domains shown, Fab) VH: EVQLVQSGAEVKKPGASVKVSCKASGYTFTSYWMHWVRQAPGQRLEWMGEINPTNGRTNYIEKFKSRVTITRDTSASTAYMELSSLRSEDTAVYYCARGTRAYHYWGQGTMVTVSS VL: DIQMTQSPSSLSASVGDRVTITCRASDNLYSNLAWYQQKPGKAPKLLLYDATNLADGVPSRFSGSGSGTDYTLTISSLQPEDFATYYCQHFWGTPLTFGQGTKVEIK | –
2 | 41600 pM | 0.0201 s⁻¹ | 483000 M⁻¹ s⁻¹ | 7260 pM | 0.00466 s⁻¹ | 642000 M⁻¹ s⁻¹ | – | – | – | – | – | – | Hu15G11.v3.Fab (Fab, V domains shown, Fab) VH: EVQLVQSGAEVKKPGASVKVSCKASGYTFTSYWMHWVRQAPGQRLEWMGEINPTNGRTNYIEKFKSRVTITRDTSASTAYMELSSLRSEDTAVYYCARGTRAYHYWGQGTMVTVSS VL: DIQMTQSPSSLSASVGDRVTITCRASDNLYSNLAWYQQKPGKSPKLLVYDATNLADGVPSRFSGSGSGTDYTLTISSLQPEDFATYYCQHFWGTPLTFGQGTKVEIK | –
3 | – | – | – | – | – | – | 1950 pM | 67% | 460 pM | 390 pM | 400 pM | 320 pM | 6298 (antibody, V domains shown, anti-BACE1 IgG) VH: QLQLQESGPGLVKPSETLSLTCTVSGGSISWSSYYWSWIRQPPGKGLEWIGNIYYSGSTYYNPSLKSRVTISVDTSKNQFSLKLSSVTAADTAVYYCARLGHGYNYFDLWGRGTLVTVSS VL: EIVLTQSPATLSLSPGERATLSCRASQSVSSYLAWFQQKPGQAPRLLIYDASNRATGIPARFSGSGSGTDFTLTISSLEPEDFAVYYCQQVYVWPPRTFGGGTKVEIK | –
4 | – | – | – | – | – | – | 3530 pM | 59% | < 300 pM | < 300 pM | < 340 pM | < 270 pM | 6294 (antibody, V domains shown, anti-BACE1 IgG) VH: QLQLQESGPGLVKPSETLSLTCTVSGGSISSSSHYWGWIRQPPGKGLEWIGMIYYSGSTWYNPSLKSRVTISVDTSKNQFSLKLSSVTAADTAVYYCARVGHGVSYFDLWGRGTLVTVSS VL: EIVLTQSPATLSLSPGERATLSCRASQSVSSYLAWYQQKPGQAPRLLIYDASKRATGIPARFSGSGSGTDFTLTISSLEPEDFAVYYCQQVYTWPPRTFGGGTKVEIK | –
5 | – | – | – | – | – | – | 1410 pM | 68% | < 260 pM | < 280 pM | < 300 pM | < 260 pM | 6291 (antibody, V domains shown, anti-BACE1 IgG) VH: QLQLQESGPGLVKPSETLSLTCTVSGGSISSSSYYWGWIRQPPGKGLEWIGMIYYSGSTWYNPSLKSRVTISVDTSKNQFSLKLSSVTAADTAVYYCARVGHGVSYFDLWGRGTLVTVSS VL: EIVLTQSPATLSLSPGERATLSCRASQSVSSYLAWYQQKPGQAPRLLIYGASKRATGIPARFSGSGSGTDFTLTISSLEPEDFAVYYCQQVYTWPPRTFGGGTKVEIK | –
6 | 4230 pM | 0.00342 s⁻¹ | 808000 M⁻¹ s⁻¹ | 401 pM | 0.000686 s⁻¹ | 1.71e+06 M⁻¹ s⁻¹ | – | – | – | – | – | – | Hu7A4.v9.Fab (Fab, V domains shown, Fab) VH: EVQLVQSGAEVKKPGASVKVSCKASGYTFTDYAMHWVRQAPGQGLEWMGGISTYFGRTNYNQKFKGRVTMTRDTSISTAYMELSRLRSDDTAVYYCARGLSGNYVMDYWGQGTTVTVSS VL: DIVMTQSPDSLAVSLGERATINCRASESVDSYGNSFMHWYQQKPGQPPKLLIYRASNLESGVPDRFSGSGSRTDFTLTISSLQAEDVAVYYCQQSNEGPPTFGQGTKLEIK | –
7 | 1900 pM | 0.00331 s⁻¹ | 1.74e+06 M⁻¹ s⁻¹ | 255 pM | 0.000844 s⁻¹ | 3.32e+06 M⁻¹ s⁻¹ | – | – | – | – | – | – | Hu7A4.v12.Fab (Fab, V domains shown, Fab) VH: EVQLVQSGAEVKKPGASVKVSCKGSGYTFTDYAMHWVRQAPGQGLEWMGGISTYFGRTNYNQKFKGRVTMTVDTSISTAYMELSRLRSDDTAVYYCARGLSGNYVMDYWGQGTTVTVSS VL: DIVMTQSPDSLAVSLGERATINCRASESVDSYGNSFMHWYQQKPGQPPKLLIYRASNLESGVPDRFSGSGSRTDFTLTISSLQAEDVAVYYCQQSNEGPPTFGQGTKLEIK | –
8 | – | – | – | – | – | – | – | – | < 680 pM | < 800 pM | < 400 pM | < 340 pM | 6300 (antibody, V domains shown, anti-BACE1 IgG) VH: QVQLVQSGAEVKKPGSSVKVSCKASGGTLSGYAISWVRQAPGQGLEWMGNIIPGFGTANYAQKSQGRVTITADESTSTAYMELSSLRSEDTAVYYCARSGGTRYGMLDVWGQGTMVTVSS VL: EIVLTQSPATLSVSPGERATLSCRASQSVGSNLAWYQQKPGQAPRLLIYGASTRATGIPARFSGSGSGTEFTLTISSLQSEDFAVYYCQQSFLWPPRTFGGGTKVEIK | IC50, Abeta x-40 in mouse cortical neurons [9]: 9100 pM; maximal % inhibition of Abeta x-40 [9]: 71%

Continued, binder first:

Row | Binder | Kd [1] | koff [1] | kon [1] | Kd [2] | koff [2] | kon [2] | IC50, Abeta x-40 in mouse cortical neurons [3] | maximal % inhibition of Abeta x-40 [3] | Kd (murine BACE1 ECD [5]) | Kd (human BACE1 ECD [6]) | Kd (murine BACE1 ECD [7]) | Kd (human BACE1 ECD [8]) | also measured
9 | 5903 (antibody, V domains shown) VH: QLQLQESGPGLVKPSETLSLTCTVSGGSISSSSYYWGWIRQPPGKGLEWIGMIYYSGSTWYNPSLKSRVTISVDTSKNQFSLKLSSVTAADTAVYYCARVGHGISYFDLWGRGTLVTVSS VL: EIVLTQSPATLSLSPGERATLSCRASQSVSSYLAWYQQKPGQAPRLLIYDASKRATGIPARFSGSGSGTDFTLTISSLEPEDFAVYYCQQVYTWPPRTFGGGTKVEIK | – | – | – | – | – | – | 1630 pM | 72% | – | – | – | – | IC50, Abeta x-40 in mouse cortical neurons (5903*, second run) [3]: 7270 pM; EC50, FRET short substrate [4]: 3120 pM; EC50, HTRF long substrate [4]: 1380 pM
10 | 6285 (antibody, V domains shown, anti-BACE1 IgG) VH: QLQLQESGPGLVKPSETLSLTCTVSGGSTSSSSYYWGWIRQPPGKGLEWIGSIYRSGSTYYNPSLKSRVTISVDTSKNQFSLKLSSVTAADTAVYYCARVGHGISYFDLWGRGTLVTVSS VL: EIVLTQSPATLSLSPGERATLSCRASQSVSSYLAWYQQKPGQAPRLLIYDASSRATGIPARFSGSGSGTDFTLTISSLEPEDFAVYYCQQSLTWPPRTFGGGTKVEIK | – | – | – | – | – | – | 15400 pM | 57% | < 280 pM | 320 pM | 410 pM | 430 pM | –
11 | 5990 (antibody, V domains shown, anti-BACE1 IgG) VH: QLQLQESGPGLVKPSETLSLTCTVSGGSISWSSYYWSWIRQPPGKGLEWIGSIYRSGRTYYNPSLKSRVTISVDTSKNQFSLKLSSVTAADTAVYYCARVGHGINYFDLWGRGTLVTVSS VL: EIVLTQSPATLSLSPGERATLSCRASRSVNSYLAWYQQKPGQAPRLLIYDASKRATGIPARFSGSGSGTDFTLTISSLEPEDFAVYYCQQVYTWPPRTFGGGTKVEIK | – | – | – | – | – | – | 530 pM | 61% | < 180 pM | < 180 pM | < 230 pM | < 180 pM | –
12 | 6280 (antibody, V domains shown, anti-BACE1 IgG) VH: QLQLQESGPGLVKPSETLSLTCTVSGGSTSSSSYYWGWIRQPPGKGLEWIGSIYRSGSTYYNPSFKSRVTISVDTSKNQFSLKLSSVTAADTAVYYCARVGHGISYFDLWGRGTLVTVSS VL: EIVLTQSPATLSLSPGERATLSCRASQSVSSYLAWYQQKPGQAPRLLIYDASNRATGIPARFSGSGSGTDFTLTISSLEPEDFAVYYCQQSLTWPPRTFGGGTKVEIK | – | – | – | – | – | – | 8290 pM | 65% | < 320 pM | < 320 pM | < 310 pM | 310 pM | –
13 | 6276 (antibody, V domains shown, anti-BACE1 IgG) VH: QVQLVQSGAEVKKPGSSVKVSCKASGGTFRGYAISWVRQAPGQGLEWMGNIIPGLSTANYAQKFQGRVTITADESTSTAYMELSSLRSEDTAVYYCARSGGTKYGMLDVWGQGTMVTVSS VL: EIVMTQSPATLSVSPGERATLSCRASQSVSSNLAWYQQKPGQAPRLLIYGASTRATGIPARFSGSGSGTEFTLTISSLQSEDFAVYYCQQLILWPPRTFGGGTKVEIK | – | – | – | – | – | – | 7400 pM | 81% | < 620 pM | < 590 pM | < 540 pM | < 410 pM | –
